Usually stoichiometry N stands for a count of units in the complex or per binding partner.

We go through 16 molecules from paper PMC8367383, “A CTP-dependent gating mechanism enables ParB spreading on DNA” (eLife, 2021).

Data set [1] deals with T1, C. crescentus ParB (WT); ParB-His6 (Caulobacter vibrioides, UniProt B8GW30, E102A).
T1 construct: full length, C-terminal His6 (pET21b), made in E. coli; dimer
As to the kind of experiment: DRaCALA membrane-spotting. Particulars: labelled compound (5 nM 32P-alpha-CTP with 30 uM unlabelled CTP); 1.5 uM 22 bp parS DNA; 10 mM CaCl2, pH 8.0, room temperature. It is filed as binding.

Data set [2] deals with T2, C. crescentus ParB (WT); ParB-His6 (Caulobacter vibrioides, UniProt B8GW30).
T2 construct: full length, C-terminal His6 (pET21b), made in E. coli; dimer
T2 sequence (B8GW30 whole entry): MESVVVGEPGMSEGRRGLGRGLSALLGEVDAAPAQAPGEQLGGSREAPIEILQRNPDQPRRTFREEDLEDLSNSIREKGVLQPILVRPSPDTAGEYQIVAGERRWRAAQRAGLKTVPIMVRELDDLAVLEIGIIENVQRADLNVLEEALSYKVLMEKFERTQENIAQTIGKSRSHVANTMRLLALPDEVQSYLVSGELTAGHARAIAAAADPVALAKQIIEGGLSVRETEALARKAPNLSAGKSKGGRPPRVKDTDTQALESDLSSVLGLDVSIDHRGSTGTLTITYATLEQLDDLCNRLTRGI
The experiment in a line: EnzChek inorganic phosphate release. Particulars: 0-1000 uM CTP, 1 uM ParB, 0.5 uM 22 bp parS DNA; Mg2+, pH 8.0, 25 C; rates only in figure. It is filed as biochemical.

Data set [3] deals with C. crescentus ParB (L224C I304C), dual-cysteine variant (C. crescentus) (UniProt B8GW30). The experiment in a line: cross-linking; BMOE double crosslinking of 8 µM dual-cysteine ParB variant ± 0.5 µM DNA (22 bp parS, circular 3 kb parS or scrambled parS plasmid) ± 1 mM CTP; denaturing polyacrylamide and agarose gels; post-treatment with Benzonase or TEV protease; protein released from gel slices of the HMW smear.

Data set [4] addresses CTP. As to the kind of experiment: membrane-spotting assay (DRaCALA). Particulars: highest protein concentration point (about 12.5 µM on x axis); 5 nM radiolabeled CTP α-P32, 30 µM unlabeled CTP, 1.5 µM 22 bp parS DNA; parent: est. 13; read off a plot.
The target in data set [5] is T3, ParB∆CTD-His6 (Caulobacter crescentus, UniProt B8GW30 11-254).
T3 sequence: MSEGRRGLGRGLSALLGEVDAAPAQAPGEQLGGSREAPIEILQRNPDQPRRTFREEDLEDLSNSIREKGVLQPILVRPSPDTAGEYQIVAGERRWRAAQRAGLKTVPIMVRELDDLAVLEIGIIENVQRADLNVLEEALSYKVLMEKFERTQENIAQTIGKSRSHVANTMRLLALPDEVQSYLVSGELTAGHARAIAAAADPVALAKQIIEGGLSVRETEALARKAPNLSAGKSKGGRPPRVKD
The experiment in a line: crystal structure; no nucleotide; BLI: 100 mM Tris-HCl pH 8.0, 100 mM NaCl, 1 mM MgCl2, 0.005% Tween 20, 22 °C, 1 µM ParB dimer (5 µM for Q35C); crosslinking: 8 µM ParB, 0.5 µM DNA, ±1 mM CTP. The note with it: protein: recombinant; tags: C-terminal His6; chain copies: 2; blunt, self-complementary palindrome.

Data set [6] deals with the molecule itself. As to the kind of experiment: cross-linking; BMOE (1 mM) crosslinking of symmetry-related cysteines; 8 µM single-cysteine ParB variant ± 0.5 µM 22 bp parS DNA ± CTP (0-1000 µM); 10 mM Tris-HCl pH 7.4, 100 mM NaCl, 1 mM MgCl2; 5 min at room temperature; denaturing polyacrylamide gel.

Positions count from the first letter of the chain named. In names and notes the source's numbering stands.

T1 sequence (B8GW30 whole entry E102A): as the sequence (B8GW30 whole entry) above, with E102A counted along it

In the case of `Nc1ccn([C@@H]2O[C@H](COP(=O)(O)OP(=O)(O)OP(=O)(O)O)[C@@H](O)[C@H]2O)c(=O)n1` [CTP], the DRaCALA membrane-spotting entry in data set [1] is recorded as “ParB (E102A) did not hydrolyze CTP (Figure 6B) but nevertheless bound CTP efficiently”. Further, in data set [2], the “EnzChek inorganic phosphate release” value is given as “The CTPase rates were measured at increasing concentration of CTP”.

Take “C. crescentus ParB (L224C I304C), dual-cysteine variant (from UniProt B8GW30 1-304)”: the stoichiometry N in data set [3] worked out at 2.

Regarding C. crescentus ParB (WT) E102A, the response in data set [4] was found to be 24%.

As for C. crescentus ParB (WT) E135A, in data set [4], the response came out at 26%.

For C. crescentus ParB (WT) G79S, the response in data set [4] is 3.5%.

Regarding C. crescentus ParB (WT) N136A, the response in data set [4] turned out to be 0.7%.

C. crescentus ParB (WT) Q58A: the response in data set [4] worked out at 10%.

With C. crescentus ParB (WT) Q82A, the response in data set [4] came out at 15%.

Turning to C. crescentus ParB (WT) R60A, in data set [4], the response worked out at 0.7%.

Regarding C. crescentus ParB (WT) R104A, the response in data set [4] stood at 0%.

In the case of C. crescentus ParB (WT) R139A, in data set [4], the response came to 1.5%.

For C. crescentus ParB (WT) S74A, the response in data set [4] stood at 0.5%.

B1: 22 bp parS (dsDNA)
DNA 1: GGATGTTTCACGTGAAACATCC
DNA 2: GGATGTTTCACGTGAAACATCC
In the case of B1, the binding result in data set [5] is “binds”.

B2: C. crescentus ParB (Q35C) on a cysteine-less ParB (C297S) background (natural protein, UniProt B8GW30 1-304, looked up)
chain: MESVVVGEPGMSEGRRGLGRGLSALLGEVDAAPACAPGEQLGGSREAPIEILQRNPDQPRRTFREEDLEDLSNSIREKGVLQPILVRPSPDTAGEYQIVAGERRWRAAQRAGLKTVPIMVRELDDLAVLEIGIIENVQRADLNVLEEALSYKVLMEKFERTQENIAQTIGKSRSHVANTMRLLALPDEVQSYLVSGELTAGHARAIAAAADPVALAKQIIEGGLSVRETEALARKAPNLSAGKSKGGRPPRVKDTDTQALESDLSSVLGLDVSIDHRGSTGTLTITYATLEQLDDLSNRLTRGI
notes: ParB, Caulobacter crescentus, with the stated substitutions; pET21b construct, so probably made in E. coli; source: purified (HIS-Select Cobalt gravity flow column, PD-10)
B2: the binding result in data set [6] is on record as “binds”.

B3: C. crescentus ParB (L224C) on a cysteine-less ParB (C297S) background (natural protein, UniProt B8GW30 1-304, looked up)
chain: B2 chain with C35Q, L224C
notes: as for B2
As for B3, the binding result in data set [6] was “binds”.

B4: C. crescentus ParB (I304C) on a cysteine-less ParB (C297S) background (natural protein, UniProt B8GW30 1-304, looked up)
chain: B2 chain with C35Q, I304C
notes: as for B2
Regarding B4, in data set [6], the binding result is “binds”.
